In US8501692 (REGENTS OF THE UNIVERSITY OF MICHIGAN, dated 2013):

Molecular target: the molecule itself
Experiment: SDS-PAGE after oxidation with CuCl2
Description: Oxidation: Purified proteins were oxidized in 50 mM Tris pH 8.0 buffer containing 100 μm CuCl_2 overnight at 4° C. CuCl_2 was then removed by chelating it by adding 1 mM EDTA to the above mixture. Protein was further purified by passing it through Q Sepharose column and eluting off the column with 150-500 mM NaCl gradient. Fractions containing purified oxidized protein were identified by running on a SDS-PAGE gel under non-reducing conditions and pooled and concentrated to 5 mg/ml and snap frozen in liq N_2 and stored at −80° C.

Protein	binding result
G4C/S10C/T172R/G173Q CocE with H6 tag (enzyme, oxidized with CuCl2: disulfide bridge between Cys 4 of one monomer and Cys 10 of the other monomer, Cloned and expressed like the CC mutant (C-terminal His tag); Cross-linked homodimer; also called CCRQ; CCRQ-CocE) MVDCNYSVACNVMVPMRDGVRLAVDLYRPDADGPVPVLLVRNPYDKFDVFAWSTQSTNWLEFVRDGYAVVIQDTRGLFASEGEFVPHVDDEADAEDTLSWILEQAWCDGNVGMFGVSYLGVTQWQAAVSGVGGLKAIAPSMASADLYRAPWYGPGGALSVEALLGWSALIGRQLITSRSDARPEDAADFVQLAAILNDVAGAASVTPLAEQPLLGRLIPWVIDQVVDHPDNDESWQSISLFERLGGLATPALITAGWYDGFVGESLRTFVAVKDNADARLVVGPWSHSNLTGRNADRKFGIAATYPIQEATTMHKAFFDRHLRGETDALAGVPKVRLFVMGIDEWRDETDWPLPDTAYTPFYLGGSGAANTSTGGGTLSTSISGTESADTYLYDPADPVPSLGGTLLFHNGDNGPADQRPIHDRDDVLCYSTEVLTDPVEVTGTVSARLFVSSSAVDTDFTAKLVDVFPDGRAIALCDGIVRMRYRETLVNPTLIEAGEIYEVAIDMLATSNVFLPGHRIMVQVSSSNFPKYDRNSNTGGVIAREQLEEMCTAVNRIHRGPEHPSHIVLPIIKRKLAAALEHHHHHH	binds
G4C/S10C/L169K/G173Q CocE with H6 tag (enzyme, oxidized with CuCl2: disulfide bridge between Cys 4 of one monomer and Cys 10 of the other monomer, Cloned and expressed like the CC mutant (C-terminal His tag); Cross-linked homodimer; also called CCKQ; CCKQ tetramutant) MVDCNYSVACNVMVPMRDGVRLAVDLYRPDADGPVPVLLVRNPYDKFDVFAWSTQSTNWLEFVRDGYAVVIQDTRGLFASEGEFVPHVDDEADAEDTLSWILEQAWCDGNVGMFGVSYLGVTQWQAAVSGVGGLKAIAPSMASADLYRAPWYGPGGALSVEALLGWSAKIGTQLITSRSDARPEDAADFVQLAAILNDVAGAASVTPLAEQPLLGRLIPWVIDQVVDHPDNDESWQSISLFERLGGLATPALITAGWYDGFVGESLRTFVAVKDNADARLVVGPWSHSNLTGRNADRKFGIAATYPIQEATTMHKAFFDRHLRGETDALAGVPKVRLFVMGIDEWRDETDWPLPDTAYTPFYLGGSGAANTSTGGGTLSTSISGTESADTYLYDPADPVPSLGGTLLFHNGDNGPADQRPIHDRDDVLCYSTEVLTDPVEVTGTVSARLFVSSSAVDTDFTAKLVDVFPDGRAIALCDGIVRMRYRETLVNPTLIEAGEIYEVAIDMLATSNVFLPGHRIMVQVSSSNFPKYDRNSNTGGVIAREQLEEMCTAVNRIHRGPEHPSHIVLPIIKRKLAAALEHHHHHH	binds
